What was measured:
[1] = target: T1, Fur (ferric uptake regulator) (Neisseria gonorrhoeae F62, UniProt Q51008 1-144); assay: IRIS; 400 nM Fur (concentration implied); ~1 dimer/dsDNA; 20 mM Tris-Cl pH 7.9, 5 mM MgCl2, 40 mM KCl, 0.125 mM MnCl2, 2 mM DTT, 10% glycerol, 0.19 ug/uL poly dIdC (EMSA also 3.125 ug/uL BSA), RT; IRIS 2 hr, EMSA 30 min with 12.5 nM probe; conditions: protein: recombinant; tags: N-terminal 6xHis (pET15b) cleaved with thrombin and removed; chain copies: 2; label: surface-immobilized; blunt
T1 sequence: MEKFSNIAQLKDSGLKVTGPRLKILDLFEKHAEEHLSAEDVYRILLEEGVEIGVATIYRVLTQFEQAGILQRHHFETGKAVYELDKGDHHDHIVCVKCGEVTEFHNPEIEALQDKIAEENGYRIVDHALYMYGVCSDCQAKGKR

[2] = target: T1, Fur (ferric uptake regulator); assay: EMSA; Mn2+; apparent Kd; 20 mM Tris-Cl pH 7.9, 5 mM MgCl2, 40 mM KCl, 0.125 mM MnCl2, 2 mM DTT, 10% glycerol, 0.19 ug/uL poly dIdC (EMSA also 3.125 ug/uL BSA), RT; IRIS 2 hr, EMSA 30 min with 12.5 nM probe; conditions: protein: recombinant; tags: N-terminal 6xHis (pET15b) cleaved with thrombin and removed; chain copies: 2; label: surface-immobilized (IRIS); 32P (EMSA); blunt
[3] = target: T1, Fur (ferric uptake regulator); assay: IRIS; 400 nM Fur; 0.5 dimer/dsDNA; 20 mM Tris-Cl pH 7.9, 5 mM MgCl2, 40 mM KCl, 0.125 mM MnCl2, 2 mM DTT, 10% glycerol, 0.19 ug/uL poly dIdC (EMSA also 3.125 ug/uL BSA), RT; IRIS 2 hr, EMSA 30 min with 12.5 nM probe; conditions: protein: recombinant; tags: N-terminal 6xHis (pET15b) cleaved with thrombin and removed; chain copies: 2; label: surface-immobilized; blunt
[4] = target: T1, Fur (ferric uptake regulator); assay: IRIS; 200 nM Fur; 1 dimer/dsDNA; 20 mM Tris-Cl pH 7.9, 5 mM MgCl2, 40 mM KCl, 0.125 mM MnCl2, 2 mM DTT, 10% glycerol, 0.19 ug/uL poly dIdC (EMSA also 3.125 ug/uL BSA), RT; IRIS 2 hr, EMSA 30 min with 12.5 nM probe; conditions: protein: recombinant, tags: N-terminal 6xHis (pET15b) cleaved with thrombin and removed, chain copies: 2, blunt
[5] = target: T1, Fur (ferric uptake regulator); assay: IRIS; no DSH increase up to 800 nM Fur; 20 mM Tris-Cl pH 7.9, 5 mM MgCl2, 40 mM KCl, 0.125 mM MnCl2, 2 mM DTT, 10% glycerol, 0.19 ug/uL poly dIdC (EMSA also 3.125 ug/uL BSA), RT; IRIS 2 hr, EMSA 30 min with 12.5 nM probe; conditions: protein: recombinant; tags: N-terminal 6xHis (pET15b) cleaved with thrombin and removed; chain copies: 2; label: surface-immobilized; blunt

B1: NGO1189 promoter probe (dsDNA)
DNA 1: ACTGCCGGTTTGAAAAAAGAATCCATATCGGTGTTTCCGCGCAGGAGGC
DNA 2: GCCTCCTGCGCGGAAACACCGATATGGATTCTTTTTTCAAACCGGCAGT
modifications: 5' amino-C6 on strand 1
binding signal [1]: 2 ± 0.03 nm DSH

B2: fur promoter Fur box probe (dsDNA)
DNA 1: CTGCTTGAATATTTTATAAAAGCGAACGATAATCATACGCTTAAGCGGT
DNA 2: ACCGCTTAAGCGTATGATTATCGTTCGCTTTTATAAAATATTCAAGCAG
modifications: 5' amino-C6 on strand 1 (IRIS)
Kd [2]: 31.8 ± 7.9 nM

B3: NGO0304 promoter probe (dsDNA)
DNA 1: GAACGAAAATTGATAAAACAAAAGTTAATTAATTGATTGAGAACATAAC
DNA 2: GTTATGTTCTCAATCAATTAATTAACTTTTGTTTTATCAATTTTCGTTC
modifications: 5' amino-C6 on strand 1
binding signal [1]: 2 ± 0.1 nm DSH

B4: NGO1948 promoter probe (dsDNA)
DNA 1: TCTTTCCGTCAAAATACTTTCTTTTTATATTCATTAACTTGTTAAATTA
DNA 2: TAATTTAACAAGTTAATGAATATAAAAAGAAAGTATTTTGACGGAAAGA
modifications: 5' amino-C6 on strand 1
binding signal [3]: 1.7 ± 0.07 nm DSH

B5: NGO0101 promoter probe (dsDNA)
DNA 1: CATATTTGAATATAAAAAAGAGCATTGTTGCGTTATCCAATGCTGTAAT
DNA 2: ATTACAGCATTGGATAACGCAACAATGCTCTTTTTTATATTCAAATATG
modifications: 5' amino-C6 on strand 1 (IRIS)
Kd [2]: 406 ± 145 nM
binding signal ([4]; label: surface-immobilized (IRIS), 32P (EMSA)): 1.9 ± 0.4 nm DSH

B6: NGO1845 promoter probe (dsDNA)
DNA 1: CGGCAAACAAGAAAATCATCTTTTTTCTTGTCGTTATGCTTGACTGTCT
DNA 2: AGACAGTCAAGCATAACGACAAGAAAAAAGATGATTTTCTTGTTTGCCG
modifications: 5' amino-C6 on strand 1
binding signal [3]: 1.7 ± 0.3 nm DSH

B7: NGO1284 promoter probe (dsDNA)
DNA 1: ACACGGGAAATAATATCAATATATTGATTTACAAACATAAAAATCATGC
DNA 2: GCATGATTTTTATGTTTGTAAATCAATATATTGATATTATTTCCCGTGT
modifications: 5' amino-C6 on strand 1
binding signal [3]: 1.7 ± 0.03 nm DSH

B8: NGO0155 promoter probe (dsDNA)
DNA 1: GATATTTTGTGCTAAAAATTTATATAATATTTAAATTAATATCAAGTTA
DNA 2: TAACTTGATATTAATTTAAATATTATATAAATTTTTAGCACAAAATATC
modifications: 5' amino-C6 on strand 1
binding signal [1]: 1.9 ± 0.1 nm DSH

B9: NGO1683 promoter probe (NGO1684 in Table 1) (dsDNA)
DNA 1: GCGGCGATTGTAATATAAGCGGCGGTATTTGTGTAGTTTTCTTCAGACG
DNA 2: CGTCTGAAGAAAACTACACAAATACCGCCGCTTATATTACAATCGCCGC
modifications: 5' amino-C6 on strand 1
binding result [5]: no binding

B10: NGO0899 promoter probe (dsDNA)
DNA 1: TTTTATGCCGAAAATTGATTTTTTTTAAATTTTTTGTTTCTAAAATTTT
DNA 2: AAAATTTTAGAAACAAAAAATTTAAAAAAAATCAATTTTCGGCATAAAA
modifications: 5' amino-C6 on strand 1
binding signal [1]: 2.2 ± 0.1 nm DSH

B11: NGO0073 promoter probe (dsDNA)
DNA 1: CTGTATAAATGATAATGGTTCTATTTTAATAAAGCACAACGCGGCTTGT
DNA 2: ACAAGCCGCGTTGTGCTTTATTAAAATAGAACCATTATCATTTATACAG
modifications: 5' amino-C6 on strand 1 (IRIS)
Kd [2]: 39.8 ± 6.3 nM

B12: NGO1745 promoter probe (dsDNA)
DNA 1: TACAGATGAAGACAATGAGCGTGCTGTTAAAGAGTTATTTAAGTCATTT
DNA 2: AAATGACTTAAATAACTCTTTAACAGCACGCTCATTGTCTTCATCTGTA
modifications: 5' amino-C6 on strand 1
binding result [5]: no binding

B13: NGO0641 promoter probe (dsDNA)
DNA 1: AAAGACAGCAAAGAATTGATTTTATTATAATTTATTTGTAAAGCCATTT
DNA 2: AAATGGCTTTACAAATAAATTATAATAAAATCAATTCTTTGCTGTCTTT
modifications: 5' amino-C6 on strand 1
binding signal ([4]; label: surface-immobilized): 2 ± 0.1 nm DSH

B14: NGO1419 promoter probe (dsDNA)
DNA 1: TGACGAAAAAACAAAGAAGTATACTTCTTTTTAGTTATGGTTGATTCCA
DNA 2: TGGAATCAACCATAACTAAAAAGAAGTATACTTCTTTGTTTTTTCGTCA
modifications: 5' amino-C6 on strand 1
binding signal ([4]; label: surface-immobilized): 1.9 ± 0.4 nm DSH

Source: article PMC4014563, “A High-Throughput Method to Examine Protein-Nucleotide Interactions Identifies Targets of the Bacterial Transcriptional Regulatory Protein Fur”
